{"source": "patent EP4480961A1", "about": "(Consejo Superior De Investigaciones Científicas, dated 2024)", "key": {"[1]": {"target": "T1, soluble recombinant OmpF (outer membrane porin F) from Yersinia ruckeri (Yersinia ruckeri)", "T1 construct": "also called rOmpF; Y. ruckeri OmpF", "test": "BLI, biotinylated chimera on streptavidin tips, soluble rOmpF 0.5-2.3 µM, PBS pH 7.4"}, "[2]": {"target": "T2, Y. ruckeri OmpF embedded in the outer membrane of E. coli MDS42 ΔompF cells (Yersinia ruckeri)", "T2 construct": "whole, on cells; Cells were fixed with PFA for flow cytometry; also called OmpF Y. ruckeri expressing strain; specific target", "test": "flow cytometry on E. coli expressing Y. ruckeri OmpF, chimera at 0.1 µM and 1 µM, PBS"}, "[3]": {"target": "T3, ovalbumin (UniProt P01012 2-386)", "T3 construct": "also called ovoalbumin", "T3 sequence (looked up)": "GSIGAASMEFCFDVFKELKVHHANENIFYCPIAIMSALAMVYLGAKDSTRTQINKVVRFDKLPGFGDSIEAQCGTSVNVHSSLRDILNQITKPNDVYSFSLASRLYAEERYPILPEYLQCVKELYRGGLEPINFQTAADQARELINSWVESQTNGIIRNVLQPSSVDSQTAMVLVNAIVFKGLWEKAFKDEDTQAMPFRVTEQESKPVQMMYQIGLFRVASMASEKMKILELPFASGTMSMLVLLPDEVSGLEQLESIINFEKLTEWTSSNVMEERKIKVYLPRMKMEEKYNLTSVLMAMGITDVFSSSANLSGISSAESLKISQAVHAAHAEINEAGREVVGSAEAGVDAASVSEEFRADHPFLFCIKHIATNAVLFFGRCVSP", "test": "cross-reactivity test, yeast display flow cytometry"}, "[4]": {"target": "T4, human seroalbumin (human, UniProt P02768 25-609)", "T4 construct": "also called hSA", "T4 sequence (P02768 25-609)": "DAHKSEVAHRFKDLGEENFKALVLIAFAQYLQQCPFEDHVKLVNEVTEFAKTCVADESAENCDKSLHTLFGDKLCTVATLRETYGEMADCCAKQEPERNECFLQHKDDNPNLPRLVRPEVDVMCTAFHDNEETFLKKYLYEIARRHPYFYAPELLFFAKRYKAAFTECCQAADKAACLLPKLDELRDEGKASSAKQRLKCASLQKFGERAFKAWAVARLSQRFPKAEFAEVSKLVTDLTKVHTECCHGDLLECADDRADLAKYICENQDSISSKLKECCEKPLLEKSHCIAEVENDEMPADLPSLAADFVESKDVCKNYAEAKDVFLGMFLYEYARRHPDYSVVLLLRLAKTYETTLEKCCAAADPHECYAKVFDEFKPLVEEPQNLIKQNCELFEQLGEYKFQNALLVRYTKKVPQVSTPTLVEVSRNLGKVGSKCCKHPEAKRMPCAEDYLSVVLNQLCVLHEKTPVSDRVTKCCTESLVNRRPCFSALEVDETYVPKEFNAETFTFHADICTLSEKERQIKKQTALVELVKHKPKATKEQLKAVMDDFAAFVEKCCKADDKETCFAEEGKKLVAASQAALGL", "test": "cross-reactivity test, yeast display flow cytometry"}, "[5]": {"target": "T2, Y. ruckeri OmpF embedded in the outer …", "test": "flow cytometry titration in fresh water"}, "[6]": {"target": "T5, wild-type E. coli OmpF embedded in the membrane of E. coli MDS42 cells (Escherichia coli, UniProt P02931 23-362)", "T5 construct": "whole, on cells", "T5 sequence": "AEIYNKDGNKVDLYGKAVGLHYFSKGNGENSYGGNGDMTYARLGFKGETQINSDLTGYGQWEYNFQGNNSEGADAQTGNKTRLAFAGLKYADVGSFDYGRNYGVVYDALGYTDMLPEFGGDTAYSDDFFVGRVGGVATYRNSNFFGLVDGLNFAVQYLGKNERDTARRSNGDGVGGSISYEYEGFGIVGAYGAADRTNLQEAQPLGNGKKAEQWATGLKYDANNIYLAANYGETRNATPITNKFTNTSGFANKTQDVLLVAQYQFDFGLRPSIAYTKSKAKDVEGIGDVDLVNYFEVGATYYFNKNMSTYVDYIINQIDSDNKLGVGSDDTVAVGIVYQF", "test": "flow cytometry titration in fresh water"}, "[7]": {"target": "T5, wild-type E. coli OmpF embedded in the …", "test": "flow cytometry titration in PBS, 5 concentrations 0.001-3 µM, […]"}, "[8]": {"target": "T2, Y. ruckeri OmpF embedded in the outer …", "test": "flow cytometry titration in PBS, 5 concentrations 0.001-3 µM, normalised"}}, "data": [{"binder": "DBP1-L1 chimeric protein (designed binder, Biotinylated and immobilised on streptavidin tips for BLI; biotinylated for microscopy and flow cytometry) MADLPQKVSNLSINNKENGGGGGKSSYVPPHLRSRGKPSFERRSPKQKDKVTGGDFFRRAGRQTGNNGGFFGFSKERNGGTSANYNRRGSSNYKSSGNRWVNGKHIPGPKNAKLQKAELFGVHDDPDYHSSGIKFDNYDNIPVDASGKDVPEPILGGRTRGGGGFFNSRNNGSRDYRKHGGNGSFGSTRPRNTGTSNWGSIGGGFRNDNEKNGYGNSNASWWGSATVKFTYQGEEKQVDISKIKMVIRMGQMILFTYDEGGGAMGRGIVSEKDAPKELLQMLEKQ", "values": [{"measurement": "Kd", "setting": "[1]", "result": 119, "unit": "nM"}, {"measurement": "percentage of double positives", "setting": "[2]", "result": "> 75", "unit": "%"}]}, {"binder": "DBP1-L2 chimeric protein (designed binder, Biotinylated and immobilised on streptavidin tips for BLI) MADLPQKVSNLSINNKENGGGGGKSSYVPPHLRSRGKPSFERRSPKQKDKVTGGDFFRRAGRQTGNNGGFFGFSKERNGGTSANYNRRGSSNYKSSGNRWVNGKHIPGPKNAKLQKAELFGVHDDPDYHSSGIKFDNYDNIPVDASGKDVPEPILGGRTRGGGGFFNSRNNGSRDYRKHGGNGSFGSTRPRNTGTSNWGSIGGGFRNDNEKNGYGNSNASWWGSATVKFTYQGEEKQVDISKIKYVIRFGQKIMFKYDEGGGAHGSGMVSEKDAPKELLQMLEKQ", "values": [{"measurement": "Kd", "setting": "[1]", "result": 26, "unit": "nM"}, {"measurement": "percentage of double positives", "setting": "[2]", "result": "> 75", "unit": "%"}]}, {"binder": "L2 engineered rcSso7d binder (designed binder, also called clone L2) ATVKFTYQGEEKQVDISKIKYVIRFGQKIMFKYDEGGGAHGSGMVSEKDAPKELLQMLEKQ", "values": [{"measurement": "binding result", "setting": "[3]", "result": "no binding (tested: 1 µM)"}, {"measurement": "binding result", "setting": "[4]", "result": "no binding (tested: 1 µM)"}]}, {"binder": "L1 engineered rcSso7d binder (designed binder, also called clone L1) ATVKFTYQGEEKQVDISKIKMVIRMGQMILFTYDEGGGAMGRGIVSEKDAPKELLQMLEKQ", "values": [{"measurement": "binding result", "setting": "[4]", "result": "no binding (tested: 1 µM)"}]}, {"binder": "mHP1α-L1 chimeric protein (designed binder, also called mHP1-L1) MGKKTKRTADSSSSEDEEEYVVEKVLDRRMVKGQVEYLLKWKGFSEEHNTWEPEKNLDCPELISEFMKKYKKMKEGENNKPREKSEGNKRKSSFSNSADDIKSKKKREQSNDIARGFERGLEPEKIIGATDSCGDLMFLMKWKDTDEADLVLAKEANVKCPQIVIAFYEERLTWHAYPEDAENKEKESAKSGSATVKFTYQGEEKQVDISKIKMVIRMGQMILFTYDEGGGAMGRGIVSEKDAPKELLQMLEKQ", "values": [{"measurement": "Kd", "setting": "[5]", "result": 140, "unit": "nM"}, {"measurement": "Kd", "setting": "[6]", "result": 130, "unit": "nM"}]}, {"binder": "mHP1α-R2 chimeric protein (designed binder, also called mHP1-R2) MGKKTKRTADSSSSEDEEEYVVEKVLDRRMVKGQVEYLLKWKGFSEEHNTWEPEKNLDCPELISEFMKKYKKMKEGENNKPREKSEGNKRKSSFSNSADDIKSKKKREQSNDIARGFERGLEPEKIIGATDSCGDLMFLMKWKDTDEADLVLAKEANVKCPQIVIAFYEERLTWHAYPEDAENKEKESAKSGSATVKFTYQGEEKQVDISKIKMVMRNGQRIRFMYDEGGGAIGLGEVSEKDAPKELLQMLEKQ", "values": [{"measurement": "Kd", "setting": "[5]", "result": 300, "unit": "nM"}, {"measurement": "Kd", "setting": "[6]", "result": 280, "unit": "nM"}, {"measurement": "Kd", "setting": "[7]", "result": 82, "unit": "nM"}, {"measurement": "Kd", "setting": "[8]", "result": 75, "unit": "nM"}]}, {"binder": "mHP1α-L2 chimeric protein (designed binder, Biotinylated for flow cytometry) MGKKTKRTADSSSSEDEEEYVVEKVLDRRMVKGQVEYLLKWKGFSEEHNTWEPEKNLDCPELISEFMKKYKKMKEGENNKPREKSEGNKRKSSFSNSADDIKSKKKREQSNDIARGFERGLEPEKIIGATDSCGDLMFLMKWKDTDEADLVLAKEANVKCPQIVIAFYEERLTWHAYPEDAENKEKESAKSGSATVKFTYQGEEKQVDISKIKYVIRFGQKIMFKYDEGGGAHGSGMVSEKDAPKELLQMLEKQ", "values": [{"measurement": "percentage of double positives", "setting": "[2]", "result": "> 75", "unit": "%"}]}]}
